1 protein from patent US20080193971 can be followed below.

The target of series [1] is T1, GNA1870 surface-exposed lipoprotein, Q9JXV4.
T1 chain: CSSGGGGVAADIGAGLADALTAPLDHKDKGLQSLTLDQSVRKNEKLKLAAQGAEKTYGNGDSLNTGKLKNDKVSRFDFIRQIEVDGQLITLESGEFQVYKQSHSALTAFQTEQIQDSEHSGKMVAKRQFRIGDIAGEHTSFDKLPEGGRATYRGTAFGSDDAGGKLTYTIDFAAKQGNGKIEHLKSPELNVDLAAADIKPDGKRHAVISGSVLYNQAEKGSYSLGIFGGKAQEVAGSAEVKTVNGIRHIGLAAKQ

The target in series [2] is T2, meningococcal protein 287 (purified).
T2 chain: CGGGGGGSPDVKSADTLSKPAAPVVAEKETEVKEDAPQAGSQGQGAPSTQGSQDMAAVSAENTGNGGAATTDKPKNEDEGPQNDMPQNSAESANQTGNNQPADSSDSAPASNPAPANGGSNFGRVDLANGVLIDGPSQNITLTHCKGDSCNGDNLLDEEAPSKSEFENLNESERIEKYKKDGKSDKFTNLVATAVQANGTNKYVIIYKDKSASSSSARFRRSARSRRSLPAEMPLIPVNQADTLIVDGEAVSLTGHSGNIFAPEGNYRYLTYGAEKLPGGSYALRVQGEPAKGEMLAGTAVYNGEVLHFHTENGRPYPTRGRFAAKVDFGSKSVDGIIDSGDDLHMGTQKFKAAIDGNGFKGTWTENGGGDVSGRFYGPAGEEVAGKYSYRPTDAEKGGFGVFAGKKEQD

Series [3] has as its target T3, recombinant App (Adhesion and penetration protein).
T3 chain: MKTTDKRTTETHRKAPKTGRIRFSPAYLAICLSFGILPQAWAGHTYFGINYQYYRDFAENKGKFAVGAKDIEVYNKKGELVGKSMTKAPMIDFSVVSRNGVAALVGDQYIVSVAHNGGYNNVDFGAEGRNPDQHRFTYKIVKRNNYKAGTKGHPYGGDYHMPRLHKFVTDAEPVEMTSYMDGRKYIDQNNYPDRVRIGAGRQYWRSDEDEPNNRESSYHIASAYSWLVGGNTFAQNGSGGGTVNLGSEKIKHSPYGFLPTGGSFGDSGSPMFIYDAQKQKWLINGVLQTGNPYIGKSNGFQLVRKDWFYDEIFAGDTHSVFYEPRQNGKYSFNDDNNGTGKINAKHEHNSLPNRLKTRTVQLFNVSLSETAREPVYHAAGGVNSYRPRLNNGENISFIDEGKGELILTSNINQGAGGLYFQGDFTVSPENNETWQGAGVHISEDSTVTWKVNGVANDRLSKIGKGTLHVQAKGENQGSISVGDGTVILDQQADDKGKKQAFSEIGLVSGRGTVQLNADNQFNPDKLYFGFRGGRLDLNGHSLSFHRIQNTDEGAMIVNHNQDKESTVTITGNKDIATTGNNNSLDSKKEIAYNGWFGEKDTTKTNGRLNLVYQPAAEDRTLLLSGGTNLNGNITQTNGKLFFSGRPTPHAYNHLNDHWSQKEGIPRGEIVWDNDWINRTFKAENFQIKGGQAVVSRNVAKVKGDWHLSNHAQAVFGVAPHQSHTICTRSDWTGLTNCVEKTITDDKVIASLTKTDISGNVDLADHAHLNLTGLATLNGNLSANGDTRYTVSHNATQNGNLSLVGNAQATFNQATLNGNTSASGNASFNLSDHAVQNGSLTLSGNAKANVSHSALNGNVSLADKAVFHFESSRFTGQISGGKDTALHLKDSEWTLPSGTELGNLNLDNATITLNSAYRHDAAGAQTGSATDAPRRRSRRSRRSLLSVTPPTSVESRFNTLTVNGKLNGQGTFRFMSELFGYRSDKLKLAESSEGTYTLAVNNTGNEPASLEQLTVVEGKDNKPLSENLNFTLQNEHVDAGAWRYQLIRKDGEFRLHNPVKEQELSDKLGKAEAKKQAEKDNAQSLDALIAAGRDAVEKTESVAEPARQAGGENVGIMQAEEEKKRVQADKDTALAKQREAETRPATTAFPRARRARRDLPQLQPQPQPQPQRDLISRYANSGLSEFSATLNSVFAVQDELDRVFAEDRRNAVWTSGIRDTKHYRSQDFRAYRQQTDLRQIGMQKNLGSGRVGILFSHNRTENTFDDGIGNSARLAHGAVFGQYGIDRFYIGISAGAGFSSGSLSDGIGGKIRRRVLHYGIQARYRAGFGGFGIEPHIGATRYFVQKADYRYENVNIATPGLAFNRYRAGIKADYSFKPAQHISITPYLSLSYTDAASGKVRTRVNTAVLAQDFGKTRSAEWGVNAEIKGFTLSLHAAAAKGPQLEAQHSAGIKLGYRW

B1: human lactoferrin (protein)
chain: GRRRSVQWCAVSQPEATKCFQWQRNMRKVRGPPVSCIKRDSPIQCIQAIAENRADAVTLDGGFIYEAGLAPYKLRPVAAEVYGTERQPRTHYYAVAVVKKGGSFQLNELQGLKSCHTGLRRTAGWNVPIGTLRPFLNWTGPPEPIEAAVARFFSASCVPGADKGQFPNLCRLCAGTGENKCAFSSQEPYFSYSGAFKCLRDGAGDVAFIRESTVFEDLSDEAERDEYELLCPDNTRKPVDKFKDCHLARVPSHAVVARSVNGKEDAIWNLLRQAQEKFGKDKSPKFQLFGSPSGQKDLLFKDSAIGFSRVPPRIDSGLYLGSGYFTAIQNLRKSEEEVAARRARVVWCAVGEQELRKCNQWSGLSEGSVTCSSASTTEDCIALVLKGEADAMSLDGGYVYTAGKCGLVPVLAENYKSQQSSDPDPNCVDRPVEGYLAVAVVRRSDTSLTWNSVKGKKSCHTAVDRTAGWNIPMGLLFNQTGSCKFDEYFSQSCAPGSDPRSNLCALCIGDEQGENKCVPNSNERYYGYTGAFRCLAENAGDVAFVKDVTVLQNTDGNNNEAWAKDLKLADFALLCLDGKRKPVTEARSCHLAMAPNHAVVSRMDKVERLKQVLLHQQAKFGRNGSDCPDKFCLFQSETKNLLFNDNTECLARLHGKTTYEKYLGPQYVAGITNLKKCSTSPLLEACEFLRK
Take B1: the “proteolytic degradation on meningococci (western blot with anti-GNA1870)” value in series [1] was “lactoferrin treatment under conditions which degrade App had no effect on ONA1870”. Moreover, in series [2], the “proteolytic cleavage (SDS-PAGE and western blot with rabbit anti-287)” value is on record as “Lane 3 shows definite cleavage of protein 287”; the “share of N-terminus RSLPAEMPL in the ~19 kDa cleavage fragment” value was “RSLPAEMPL (˜30%)”; the “share of N-terminus SLPAEMPLI in the ~19 kDa cleavage fragment” value is recorded as “SLPAEMPLI (˜70%)”. For the same protein, in series [3], the “proteolytic cleavage (western blot with anti-App)” value was “the App antigen was cleaved in different fragments”.
